Patent US20200377604

B1: knob Fc F241S/F243R (protein)
chain: DKTHTSPPSPAPELLGGPSVSLRPPKPKDTLMISRTPEVTCVVVDVSHEDPEVKFNWYVDGVEVHNAKTKPREEQYNSTYRVVSVLTVLHQDWLNGKEYKCKVSNKALPAPIEKTISKAKGQPREPQVYTLPPSREEMTKNQVSLWCLVKGFYPSDIAVEWESNGQPENNYKTTPPVLDSDGSFFLYSKLTVDKSRWQQGNVFSCSVMHEALHNHYTQKSLSLSPGK
B2: knob Fc F241R/F243S (protein)
chain: DKTHTSPPSPAPELLGGPSVRLSPPKPKDTLMISRTPEVTCVVVDVSHEDPEVKFNWYVDGVEVHNAKTKPREEQYNSTYRVVSVLTVLHQDWLNGKEYKCKVSNKALPAPIEKTISKAKGQPREPQVYTLPPSREEMTKNQVSLWCLVKGFYPSDIAVEWESNGQPENNYKTTPPVLDSDGSFFLYSKLTVDKSRWQQGNVFSCSVMHEALHNHYTQKSLSLSPGK

Legend:
[1] = gel filtration of the Fc, mAU at 280 nm against time; low, broad peak at 19.477 min
[2] = gel filtration of the Fc, mAU at 280 nm against time; low, broad peak at 19.455 min

Protein | Area of the small peak ahead of the monomer peak (dimer position; not labelled Dimer on the sheet) [1] | Area of the small peak ahead of the monomer peak (dimer position; not labelled Dimer on the sheet) [2]
B1 | Area: 1943.99 | –
B2 | – | Area: 3287.62
